From patent US20250382344A1, “Soluble GLP1/GIP/NPY2 Receptor Triple Agonists” (Boehringer Ingelheim International GmH, priority 2024, published 2025)
*1 amine or outer side, *2 acyl side, *3 side chain or, on linkers, in order; H or OH if unused. Where no end group is shown, it is not given here. Side-chain parts run from the residue outwards. [ ]: non-standard residue; d: D form. The star is where a group is joined. C20 diacid = O=C(O)CCCCCCCCCCCCCCCCCCC(=O)*; C18 diacid = O=C(O)CCCCCCCCCCCCCCCCC(=O)*; γGlu = O=C(O)[C@H](CCC(=O)[*:2])N[*:1]; εLys = N[C@@H](CCCCN[*:1])C(=O)[*:2]; TRX = not defined here; AEEA = NCCOCCOCC(=O)O; Aib = CC(C)(N)C(=O)O

T1: human GIP receptor (human, UniProt P48546 22-466)
T1 sequence (looked up): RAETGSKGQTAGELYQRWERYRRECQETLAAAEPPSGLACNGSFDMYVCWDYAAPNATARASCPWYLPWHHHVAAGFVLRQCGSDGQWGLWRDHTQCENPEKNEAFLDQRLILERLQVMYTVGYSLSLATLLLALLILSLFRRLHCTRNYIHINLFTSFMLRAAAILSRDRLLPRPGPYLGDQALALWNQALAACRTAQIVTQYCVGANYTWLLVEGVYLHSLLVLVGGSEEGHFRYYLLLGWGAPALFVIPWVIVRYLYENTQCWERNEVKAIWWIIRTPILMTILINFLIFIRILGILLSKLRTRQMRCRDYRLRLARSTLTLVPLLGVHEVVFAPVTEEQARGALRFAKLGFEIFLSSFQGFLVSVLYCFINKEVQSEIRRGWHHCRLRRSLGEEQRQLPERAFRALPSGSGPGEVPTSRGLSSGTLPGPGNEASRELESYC

T2: human neuropeptide Y2 receptor (human, UniProt P49146 1-381)
T2 sequence (looked up): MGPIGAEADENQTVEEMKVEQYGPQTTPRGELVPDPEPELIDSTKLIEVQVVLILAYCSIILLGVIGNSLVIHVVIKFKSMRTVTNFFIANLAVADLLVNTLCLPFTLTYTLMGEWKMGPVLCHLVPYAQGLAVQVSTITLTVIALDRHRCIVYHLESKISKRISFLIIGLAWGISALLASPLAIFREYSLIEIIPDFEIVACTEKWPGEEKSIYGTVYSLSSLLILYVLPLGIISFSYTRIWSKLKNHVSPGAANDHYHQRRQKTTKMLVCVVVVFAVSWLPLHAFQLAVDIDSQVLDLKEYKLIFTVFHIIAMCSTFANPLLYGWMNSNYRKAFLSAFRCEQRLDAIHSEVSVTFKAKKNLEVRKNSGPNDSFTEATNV


Assays:
human GIP receptor = molecular target: T1, human GIP receptor; assay: cell-based or functional assay
[1] = molecular target: T2, human neuropeptide Y2 receptor; assay: cell-based or functional assay

Binder	EC50, CreLuc reporter, 0.5% hP (human GIP receptor)	EC50, CreLuc reporter, 0.5% hP [1]	EC50, CreLuc reporter, 100% hP [1]	EC50, CreLuc reporter, 100% hP (human GIP receptor)
YXEGTFTSDYSIXLEKQAQEAFVRHLINKXTRQRY (Aib at 2, 13, 30; Lys29 epsilon-amino: C18DA-gGlu-gGlu-gGlu-gGlu-gGlu-gGlu-eLys; C-terminal amide) [Compound 170]	0.4 nM	43.8 nM	244 nM	–
YXEGTFTSDYSIXLEKQAQXAFVRHAINKXTRQRY (Aib at 2, 13, 20, 30; Lys29 epsilon-amino: C18DA-gGlu-gGlu-gGlu-gGlu-gGlu-gGlu-eLys; C-terminal amide) [Compound 139]	12.2 nM	–	22.7 nM	22.3 nM
YXEGTFTSDYSIXLEKQAQXAFVRHLINKLTRQRY (Aib at 2, 13, 20; Lys29 epsilon-amino: C18DA-gGlu-gGlu-gGlu-gGlu-gGlu-gGlu-eLys; C-terminal amide) [Compound 127]	–	10.3 nM	76.9 nM	16.7 nM
YXEGTFTSDYSIXLEKQAQXAFVRHLINKXTRQRY (Aib at 2, 13, 20, 30; Lys29 epsilon-amino: C20DA-gGlu-gGlu-gGlu-gGlu-gGlu-AHX-AHX; C-terminal amide) [Compound 106]	–	7.1 nM	41.7 nM	4.7 nM
YXEGTFTSDYSIXLEKQAQXAFVRHLINKXTRQRY (Aib at 2, 20, 30; aMeL at 13; Lys29 epsilon-amino: C20DA-gGlu-gGlu-gGlu-gGlu-gGlu-gGlu-eLys; C-terminal amide) [Compound 150]	–	–	90.7 nM	2.8 nM
YXEGTFTSDYSIXLDKQAQXAFVRYLINKXTRQRY (Aib at 2, 13, 20, 30; Lys29 epsilon-amino: C18DA-gGlu-gGlu-gGlu-gGlu-gGlu-gGlu-eLys; C-terminal amide) [Compound 153]	0.1 nM	40 nM	65.5 nM	–
YXEGTFTSDYSIXLEKQAQYAFVRHLINKXTRQRY (Aib at 2, 13, 30; Lys29 epsilon-amino: C18DA-gGlu-gGlu-gGlu-gGlu-gGlu-gGlu-eLys; C-terminal amide) [Compound 151]	0.5 nM	32.6 nM	89.8 nM	5.6 nM
YXEGTFTSDYAIXLEKQAQXAFVRHLINKXTRQRY (Aib at 2, 13, 20, 30; Lys29 epsilon-amino: C18DA-gGlu-gGlu-gGlu-gGlu-gGlu-gGlu-eLys; C-terminal amide) [Compound 142]	0.3 nM	17.4 nM	31.8 nM	3.4 nM
YXEGTFTSDYSIXLEKQAQXAFVRHLINKXTRQRY (Aib at 2, 13, 20, 30; Lys29 epsilon-amino: C18DA-gGlu-gGlu-gGlu-gGlu-gGlu-OEG; C-terminal amide) [Compound 140]	–	22 nM	141 nM	8 nM
YXEGTFTSDYSIXLEGQAQXAFVRHLINKXTRQRY (Aib at 2, 13, 20, 30; Lys29 epsilon-amino: C18DA-gGlu-gGlu-gGlu-gGlu-gGlu-gGlu-eLys; C-terminal amide) [Compound 95]	–	58 nM	96.3 nM	9.3 nM
YXEGTFTSDYSILLEKQAQXAFVRHLINKXTRQRY (Aib at 2, 20, 30; Lys29 epsilon-amino: C18DA-gGlu-gGlu-gGlu-gGlu-gGlu; C-terminal amide) [Compound 122]	0.1 nM	60.8 nM	284 nM	4.5 nM
YXEGTFTSDYSIXLEKQAQXAFVRHLINKXTRQRX (Aib at 2, 13, 20, 30; Phe4F at 35; Lys29 epsilon-amino: C18DA-gGlu-gGlu-gGlu-gGlu-gGlu-gGlu-eLys; C-terminal amide) [Compound 86]	0.3 nM	33.2 nM	162 nM	5.9 nM
YXEATFTSDYSIXLEKQAQXAFVRHLINKXTRQRY (Aib at 2, 13, 20, 30; Lys29 epsilon-amino: C18DA-gGlu-gGlu-gGlu-gGlu-gGlu-gGlu-eLys; C-terminal amide) [Compound 93]	–	–	24.8 nM	17.6 nM
YXEGTFTSDYSIXLEKQAQXAFVRHLINKLTRQRY (Aib at 2, 13, 20; Lys29 epsilon-amino: C18DA-gGlu-gGlu-gGlu-gGlu-gGlu; C-terminal amide) [Compound 158]	0.5 nM	26 nM	149 nM	14.4 nM
YXEGTFTSDYSIXLEKQAQXAFVRHLINKATRQRY (Aib at 2, 13, 20; Lys29 epsilon-amino: C18DA-gGlu-gGlu-gGlu-gGlu-gGlu-gGlu-eLys; C-terminal amide) [Compound 159]	0.2 nM	11.5 nM	57.5 nM	–
Y[Aib]EGTFTSDYSI[Aib]LEKQAQ[Aib]AFVRHLINK([AEEA-γGlu-γGlu-γGlu-γGlu-γGlu-γGlu-C20 diacid])[Aib]TRQRY-NH2 [Compound 99]	0.5 nM	16.7 nM	125 nM	9 nM
Y[Aib]EGTFTSDYSI[Aib]LEKQAQ[Aib]EFVRHLINK([εLys-γGlu-γGlu-γGlu-γGlu-C18 diacid])[Aib]TRQRY-NH2 [Compound 163]	0.2 nM	–	218 nM	5.9 nM
Y[Aib]EGTFTSDYSI[Aib]LEKQAQ[Aib]AFVRHLINK([γGlu-γGlu-γGlu-γGlu-γGlu-γGlu-TRX-C20 diacid])[Aib]TRQRY-NH2 (reading uncertain) [Compound 133]	–	44.9 nM	246 nM	3.4 nM
Y[Aib]EGTFTSDYSI[Aib]LEKQAE[Aib]AFVRHLINK([εLys-γGlu-AEEA-γGlu-γGlu-γGlu-γGlu-C20 diacid])[Aib]TRQRY-NH2 [Compound 148]	0.8 nM	–	–	–
Y[Aib]EGTFTSDYSI[Aib]LEKQAE[Aib]AFVRHLINK([εLys-γGlu-γGlu-AEEA-γGlu-γGlu-γGlu-C20 diacid])[Aib]TRQRY-NH2 [Compound 162]	0.7 nM	–	43.8 nM	–
Y[Aib]EGTFTSDYSI[Aib]LDEQAQ[Aib]AFVRHLINK([εLys-εLys-γGlu-γGlu-γGlu-γGlu-γGlu-C20 diacid])[Aib]TRQRY-NH2 [Compound 155]	0.7 nM	6 nM	63.1 nM	6.1 nM
Y[Aib]EGTFTSDYSI[Aib]LEKQAQ[Aib]AFVRHLINK([γGlu-γGlu-AEEA-γGlu-γGlu-γGlu-γGlu-C20 diacid])[Aib]TRQRY-NH2 [Compound 136]	0.5 nM	38.5 nM	123 nM	9.1 nM
Y[Aib]EGTFTSDLSI[Aib]LEKQAQ[Aib]AFVRHLINK([εLys-γGlu-γGlu-γGlu-γGlu-γGlu-γGlu-γGlu-C20 diacid])[Aib]TRQRY-NH2 [Compound 135]	0.5 nM	18.8 nM	47.8 nM	5.8 nM
Y[Aib]EGTFTSDYSI[Aib]LEKQAQ[Aib]AFVRHLINK([εLys-γGlu-γGlu-γGlu-γGlu-γGlu-γGlu-γGlu-C18 diacid])[Aib]TRQRY-NH2 [Compound 121]	–	13.8 nM	–	2.8 nM
